Results taken from PMC6912275, “Identification of Novel Adenylyl Cyclase 5 (AC5) Signaling Networks in D1 and D2 Medium Spiny Neurons using Bimolecular Fluorescence Complementation Screening” (Cells, 2019).

Columns and labels:
[1] = biological target: T1, Endogenous NAPA (human (endogenous in HEK 293), UniProt P54920 1-295); assay: co-IP; endogenous PPP2CB or NAPA immunoprecipitated with its antibody and protein A agarose from HEK AC5/D2L cell lysate (0.5% C12E10, 150 mM NaCl, pH 7.5); AC activity measured in the immunoprecipitate with activated Gαs and FSK; cells under vehicle conditions (PPP2CB) or treated overnight with quinpirole (NAPA); details: partners not purified
T1 construct: NSF attachment protein alpha, endogenous in HEK 293 cells; also called NSF attachment protein alpha; source: endogenous, HEK AC5/D2L cell lysate
T1 sequence (looked up): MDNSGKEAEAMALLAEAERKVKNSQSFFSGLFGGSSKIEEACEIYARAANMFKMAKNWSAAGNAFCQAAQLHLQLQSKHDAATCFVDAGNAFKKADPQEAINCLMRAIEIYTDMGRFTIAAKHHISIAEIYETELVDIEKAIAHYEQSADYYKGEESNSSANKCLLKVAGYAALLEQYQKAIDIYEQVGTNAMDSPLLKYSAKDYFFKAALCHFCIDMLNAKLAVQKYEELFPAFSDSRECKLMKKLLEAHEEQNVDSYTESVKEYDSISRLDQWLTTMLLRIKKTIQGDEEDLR

[2] = biological target: T2, Endogenous PPP2CB (human (endogenous in HEK 293), UniProt P62714 1-309); assay: as above; details: partners not purified
T2 construct: protein phosphatase 2A catalytic subunit beta, endogenous in HEK 293 cells; also called protein phosphatase 2A (PP2A) catalytic subunit; source: endogenous, HEK AC5/D2L cell lysate
T2 sequence (P62714 whole entry): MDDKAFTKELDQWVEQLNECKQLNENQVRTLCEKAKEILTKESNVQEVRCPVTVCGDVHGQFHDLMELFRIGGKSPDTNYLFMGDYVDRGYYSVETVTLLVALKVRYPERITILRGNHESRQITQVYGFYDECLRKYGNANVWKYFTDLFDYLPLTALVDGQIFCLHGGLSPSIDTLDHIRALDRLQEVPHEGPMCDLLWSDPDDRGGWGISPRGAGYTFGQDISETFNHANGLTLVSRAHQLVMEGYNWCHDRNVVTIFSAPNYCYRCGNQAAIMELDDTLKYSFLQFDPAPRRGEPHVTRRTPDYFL

- fold AC activity in the immunoprecipitate against the vehicle-treated group [1]: 4.5 fold
- fold AC activity in the immunoprecipitate against the control [2]: 4 fold
B1: human AC type 5 (in HEK-AC5/D2L cells) (enzyme)
chain: not shown
notes: adenylyl cyclase type 5 (AC5), human; Found in the immunoprecipitates by its adenylyl cyclase activity, not by a blot; also called adenylyl cyclase type 5; source: HEK 293 cells stably expressing human D2L and human AC5 (HEK-AC5/D2L), in lysate
